From doi:10.1101/553800 (bioRxiv, 2019)

Target: the molecule itself
Test: crystal structure

B1: hRIO2(1-321) (domain or fragment, human, UniProt Q9BVS4 1-321, looked up)
chain: MGKVNVAKLRYMSRDDFRVLTAVEMGMKNHEIVPGSLIASIASLKHGGCNKVLRELVKHKLIAWERTKTVQGYRLTNAGYDYLALKTLSSRQVVESVGNQMGVGKESDIYIVANEEGQQFALKLHRLGRTSFRNLKNKRDYHKHRHNVSWLYLSRLSAMKEFAYMKALYERKFPVPKPIDYNRHAVVMELINGYPLCQIHHVEDPASVYDEAMELIVKLANHGLIHGDFNEFNLILDESDHITMIDFPQMVSTSHPNAEWYFDRDVKCIKDFFMKRFSYESELFPTFKDIRREDTLDVEVSASGYTKEMQADDELLHPLGP
binding result: binds
